This note sets out measurements from article PMC2100146, “The Inhibition of Polo Kinase by Matrimony Maintains G2 Arrest in the Meiotic Cell Cycle” (PLoS Biology, 2007).

This assay addresses T1, C-terminally 3x FLAG-tagged Mtrm (Drosophila melanogaster, UniProt Q23973 1-217).
T1 construct: Matrimony (Mtrm), Drosophila melanogaster, 217 amino acids; Phosphorylation detected by MS on T40, S48, S52, S124 and S137; also called Mtrm-FLAG(3x); mtrm-Flag(3x); source: UASP-mtrm-Flag(3x) expressed in ovaries under the nanos-GAL4 driver in a wild-type background, in ovary extract; not shown: 3x FLAG, C-terminal, kept
T1 sequence (looked up): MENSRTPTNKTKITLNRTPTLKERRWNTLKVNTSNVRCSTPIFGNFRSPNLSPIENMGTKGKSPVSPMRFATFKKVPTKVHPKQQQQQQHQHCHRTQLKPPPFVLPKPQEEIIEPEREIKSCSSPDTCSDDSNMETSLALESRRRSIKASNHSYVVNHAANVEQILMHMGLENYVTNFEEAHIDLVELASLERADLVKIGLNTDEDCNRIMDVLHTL
As to the kind of experiment: affinity purification with mass spectrometry; anti-FLAG beads, ovary extracts expressing Mtrm-3x FLAG, eluted with 3x FLAG peptide; MudPIT; three independent purifications against five control FLAG immunoprecipitations from w1118; ratio of NSAF values. The conditions noted are these: partners not purified.

B1: Polo kinase (Polo) (enzyme, UniProt P52304 1-576, looked up)
chain: MAAKPEDKSTDIPDRLVDINQRKTYKRMRFFGKGGFAKCYEIIDVETDDVFAGKIVSKKLMIKHNQKEKTAQEITIHRSLNHPNIVKFHNYFEDSQNIYIVLELCKKRSMMELHKRRKSITEFECRYYIYQIIQGVKYLHDNRIIHRDLKLGNLFLNDLLHVKIGDFGLATRIEYEGERKKTLCGTPNYIAPEILTKKGHSFEVDIWSIGCVMYTLLVGQPPFETKTLKDTYSKIKKCEYRVPSYLRKPAADMVIAMLQPNPESRPAIGQLLNFEFLKGSKVPMFLPSSCLTMAPRIGSNDTIEDSMHRKPLMEMNGIRPDDTRLESTFLKANLHDAITASAQVCRHSEDYRSDIESLYQQLTNLINGKPRILQGNLGDENTDPAAQPLFWISKWVDYSDKYGFGYQLCDEGIGVMFNDTTKLILLPNQINVHFIDKDGKETYMTTTDYCKSLDKKMKLLSYFKRYMIEHLVKAGANNVNIESDQISRMPHLHSWFRTTCAVVMHLTNGSVQLNFSDHMKLILCPRMSAITYMDQEKNFRTYRFSTIVENGVSKDLYQKIRYAQEKLRKMLEKMFT
notes: Polo kinase, Drosophila melanogaster; endogenous protein of ovaries; Polo recovered with Mtrm-3xFLAG was found phosphorylated on T182 at over 80% in all three purifications; source: endogenous, Drosophila ovary extract
As for B1, the “stoichiometry N” value turned out to be 0.96 ± 0.11.

As a reminder, the stoichiometry N is the number of molecules, sites or subunits per partner or assembly.
